Measured values from paper PMC314469, “Protein Interaction Networks by Proteome Peptide Scanning” (PLoS Biology, 2004).

T1: Yhr016c SH3 (YSC84_YEAST), P32793
T1 chain: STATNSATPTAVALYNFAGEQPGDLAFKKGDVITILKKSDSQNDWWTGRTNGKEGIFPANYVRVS

T2: Boi1 SH3 (BOI1_YEAST), P38041
T2 chain: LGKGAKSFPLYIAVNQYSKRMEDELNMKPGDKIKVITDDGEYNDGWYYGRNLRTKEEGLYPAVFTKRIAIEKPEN

T3: Boi2 SH3 (BOI2_YEAST), P39969
T3 chain: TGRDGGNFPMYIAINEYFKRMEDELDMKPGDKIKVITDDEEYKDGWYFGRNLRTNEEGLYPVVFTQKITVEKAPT

T4: Yfr024 SH3 (LSB3_YEAST), P43603
T4 chain: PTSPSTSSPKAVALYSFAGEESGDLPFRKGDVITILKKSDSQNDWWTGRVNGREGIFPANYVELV

T5: Rvs167 SH3 (RV167_YEAST), P39743
T5 chain: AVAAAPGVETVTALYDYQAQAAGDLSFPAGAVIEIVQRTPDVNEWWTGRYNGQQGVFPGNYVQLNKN


Assays:
Test in all cases: SPOT array
[1] = biological target: T1, Yhr016c SH3 (YSC84_YEAST), P32793
[2] = biological target: T2, Boi1 SH3 (BOI1_YEAST), P38041
[3] = biological target: T3, Boi2 SH3 (BOI2_YEAST), P39969
[4] = biological target: T4, Yfr024 SH3 (LSB3_YEAST), P43603
[5] = biological target: T5, Rvs167 SH3 (RV167_YEAST), P39743

| Binder | normalised SPOT signal, Boehringer light units (BLU); mean over the file's lines of this peptide [1] | normalised SPOT signal, Boehringer light units (BLU); mean over the file's lines of this peptide [2] | normalised SPOT signal, Boehringer light units (BLU); mean over the file's lines of this peptide [3] | normalised SPOT signal, Boehringer light units (BLU); mean over the file's lines of this peptide [4] | normalised SPOT signal, Boehringer light units (BLU); mean over the file's lines of this peptide [5] |
| --- | --- | --- | --- | --- | --- |
| SAIPITPTKRIRRN [YJL194W 2-15] | 31.6 | 873 | 141 | 2690 | 73 |
| RTEPSTPSRPVPPD [YJL095W 1078-1091] | 435 | 54.7 | 8.2 | 7000 | 15.7 |
| RVLPSKPKKSVKEN [YLR183C 354-367] | 196 | 156 | 17.8 | 2620 | 42.3 |
| RRKPHSPNKKKPKE [YDR223W 12-25] | 113 | 148 | 198 | 693 | 38.5 |
| RPPPLTPEKNLYLT [YER032W 258-271] | 0 | 64.5 | 75.9 | 381 | 50.7 |
| RNEPVKPFRNIDLK [YHR037W 29-42] | 838 | 146 | 47.3 | 6040 | 39 |
| RNEPVIPTKPSSSQ [YNL139C 1279-1292] | 115 | 61.2 | 17 | 511 | 4.9 |
| RSIPRGPDKNSLRV [YOR322C 268-281] | 144 | 230 | 76.1 | 384 | 296 |
| RPNPTQPRKPLDSK [YDR359C 776-789] | 104 | 210 | 61.7 | 271 | 162 |
| RVHPEPPNKPGITT [YDR330W 407-420] | 250 | 122 | 76.2 | 271 | 55.3 |
| RYKPTPPLKKRYDY [YPL074W 335-348] | 148 | 25.5 | 83.4 | 2110 | 50.9 |
| RPLPQLPNRNNRPV [YOR181W 311-324] | 9140 | 6170 | 33.8 | 19600 | 25200 |
| SAFPQSPIRAYGST [YGL197W 1382-1395] | 156 | 238 | 37.5 | 186 | 48.9 |
| RPSPWLPSKPNSYH [YDR151C 80-93] | 578 | 102 | 37.2 | 6260 | 140 |
| SALPILPKREVVTR [YGL028C 19-32] | 43500 | 72.3 | 33.1 | 49200 | 20100 |
| RRGPGRPRKDASTS [YDR310C 204-217] | 57.2 | 323 | 53.5 | 889 | 212 |
| RPTPRKPSRMATDH [YER118C 8-21] | 2650 | 80.2 | 74.7 | 16500 | 2100 |
